Experimental findings from PMC3896488, “Complex Regulation of PKCβ2 and PDK-1/AKT by ROCK2 in Diabetic Heart” (PLoS ONE, 2014) are described below.

The target in the assay is Protein kinase C β2 (rat (endogenous in Wistar rat heart), UniProt P68403-2 1-673). Nature of the assay: cell-based or functional assay.
Chain of Protein kinase C β2 (P68403 other isoform, or with tags, fused parts or gaps): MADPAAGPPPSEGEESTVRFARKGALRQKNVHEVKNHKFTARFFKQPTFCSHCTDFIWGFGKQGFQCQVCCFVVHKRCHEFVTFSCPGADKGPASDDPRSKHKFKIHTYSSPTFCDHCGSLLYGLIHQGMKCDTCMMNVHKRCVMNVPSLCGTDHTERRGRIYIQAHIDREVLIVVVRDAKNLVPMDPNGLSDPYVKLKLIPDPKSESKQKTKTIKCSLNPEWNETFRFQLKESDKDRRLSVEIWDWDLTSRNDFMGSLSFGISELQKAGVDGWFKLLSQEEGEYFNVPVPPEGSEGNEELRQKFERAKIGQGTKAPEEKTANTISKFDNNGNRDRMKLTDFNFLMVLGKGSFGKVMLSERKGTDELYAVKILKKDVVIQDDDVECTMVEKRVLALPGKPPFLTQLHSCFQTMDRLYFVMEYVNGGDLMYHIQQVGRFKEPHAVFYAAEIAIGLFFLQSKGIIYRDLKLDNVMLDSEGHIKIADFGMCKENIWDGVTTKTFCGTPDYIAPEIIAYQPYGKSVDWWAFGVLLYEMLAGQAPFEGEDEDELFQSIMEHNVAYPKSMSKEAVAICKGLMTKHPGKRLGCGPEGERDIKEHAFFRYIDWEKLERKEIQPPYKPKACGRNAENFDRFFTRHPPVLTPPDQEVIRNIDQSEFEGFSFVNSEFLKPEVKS

B1: ROCK2 (enzyme, rat (endogenous in Wistar rat heart), UniProt Q62868 1-1388, looked up)
chain: MSRPPPTGKMPGAPEAAAGDGAGAGRQRKLEALIRDPRSPINVESLLDGLNSLVLDLDFPALRKNKNIDNFLNRYEKIVKKIRGLQMKAEDYDVVKVIGRGAFGEVQLVRHKASQKVYAMKLLSKFEMIKRSDSAFFWEERDIMAFANSPWVVQLFCAFQDDRYLYMVMEYMPGGDLVNLMSNYDVPEKWAKFYTAEVVLALDAIHSMGLIHRDVKPDNMLLDKHGHLKLADFGTCMKMDETGMVHCDTAVGTPDYISPEVLKSQGGDGYYGRECDWWSVGVFLFEMLVGDTPFYADSLVGTYSKIMDHKNSLCFPEDTEISKHAKNLICAFLTDREVRLGRNGVEEIKSASFFKNDQWNWDNIRETAAPVVPELSSDIDSSNFDDIEDDKGDVETFPIPKAFVGNQLPFIGFTYFRENLLLSDSPPCRENDAIQTRKSEESQEIQKKLYALEEHLSSEVQAKEELEQKCKSINTRLEKTAKELEEEITFRKNVESTLRQLEREKALLQHKNAEYQRKADHEADKKRNLENDVNSLKDQLEDLKKRNQSSQISTEKVNQLQKQLDEANALLRTESDTAARLRKTQAESSKQIQQLESNNRDLQDKNCLLETAKLKLEKEFINLQSALESERRDRTHGSEIINDLQGRISGLEEDLKTGKTLLAKVELEKRQLQEKLTDLEKEKSNMEIDMTYQLKVIQQSLEQEEAEHKTTKARLADKNKIYESIEEAKSEAMKEMEKKLLEERSLKQKVENLLLEAEKRCSILDCDLKQSQQKLNELLKQKDVLNEDVRNLTLKIEQETQKRCLMQNDLKMQTQQVNTLKMSEKQIKQENNHLMEMKMNLEKQNAELRKERQDADGQMKELQDQLEAEQYFSTLYKTQVRELKEENEEKTKLCKELQQKKQDLQDERDSLAAQLEITLTKADSEQLARSIAEEQYSDLEKEKIMKELEIKEMMARHKQELTEKDATIASLEETNRTLTSDVANLANEKEELNNKLKDTQEQLSKLKDEEISAAAIKAQFEKQLLTERTLKTQAVNKLAEIMNRKEPVKRGSDTDVRRKEKENRKLHMELKSEREKLTQQMIKYQKELNEMQAQIAEESQIRIELQMTLDSKDSDIEQLRSQLQALHIGMDSSSIGSGPGDAEPDDGFPESRLEGWLSLPVRNNTKKFGWVKKYVIVSSKKILFYDSEQDKEQSNPYMVLDIDKLFHVRPVTQTDVYRADAKEIPRIFQILYANEGESKKEPEFPVEPVGEKSNYICHKGHEFIPTLYHFPTNCEACMKPLWHMFKPPPALECSRCHIKCHKDHMDKKEEIIAPCKVYYDISSAKNLLLLANSTEEQQKWVSRLVKKIPKKPPAPDPFARSSPRTSMKIQQNQSIRRPSRQLAPNKPS
With B1, the “in vitro phosphorylation of dephosphorylated PKCβ2 at T641 with against without active ROCK2 (molar ratio 1:30, 400 µM ATP, 37°C, 45 min), Western blot” value was around 2 fold.
